Experimental findings from patent US20220306758A1 are described below.

For the assay, the target named is cynomolgus CD3 on mfCD3 engineered Jurkat cells (cynomolgus CD3ε and CD3δ in place of the human versions) (cynomolgus) (UniProt Q95LI5). The assay can be described thus: flow cytometry on mfCD3 engineered Jurkat cells, median EC50, n=2. A general note: A flow cytometer gives signals particle by particle.
cynomolgus CD3 on mfCD3 engineered Jurkat cells (cynomolgus CD3ε and CD3δ in place of the human versions) (cynomolgus), sequence (Q95LI5 22-198, stated change not applied, chain 1 of 2): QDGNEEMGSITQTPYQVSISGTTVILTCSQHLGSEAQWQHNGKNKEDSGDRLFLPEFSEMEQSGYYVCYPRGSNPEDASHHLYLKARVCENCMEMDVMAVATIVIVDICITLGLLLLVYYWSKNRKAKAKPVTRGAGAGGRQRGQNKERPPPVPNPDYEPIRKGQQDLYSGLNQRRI
cynomolgus CD3 on mfCD3 engineered Jurkat cells (cynomolgus CD3ε and CD3δ in place of the human versions) (cynomolgus), sequence (Q95LI8 22-171, stated change not applied, chain 2 of 2, further chain): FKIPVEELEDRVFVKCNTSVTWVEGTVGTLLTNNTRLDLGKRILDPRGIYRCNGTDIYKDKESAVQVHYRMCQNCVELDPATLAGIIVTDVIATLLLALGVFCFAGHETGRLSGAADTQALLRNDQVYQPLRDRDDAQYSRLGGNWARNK

REGN5458 (bsAb25441D), anti-BCMA x anti-CD3 bispecific antibody, sequence (VH): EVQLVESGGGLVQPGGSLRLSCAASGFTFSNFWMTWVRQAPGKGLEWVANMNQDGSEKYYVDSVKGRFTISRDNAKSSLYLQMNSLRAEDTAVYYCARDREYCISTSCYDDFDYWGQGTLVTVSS
REGN5458 (bsAb25441D), anti-BCMA x anti-CD3 bispecific antibody, sequence (VH): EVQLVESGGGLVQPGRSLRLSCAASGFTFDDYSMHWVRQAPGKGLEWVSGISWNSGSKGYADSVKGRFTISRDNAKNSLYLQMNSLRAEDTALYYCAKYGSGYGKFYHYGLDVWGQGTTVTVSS
REGN5458 (bsAb25441D), anti-BCMA x anti-CD3 bispecific antibody, sequence (VL): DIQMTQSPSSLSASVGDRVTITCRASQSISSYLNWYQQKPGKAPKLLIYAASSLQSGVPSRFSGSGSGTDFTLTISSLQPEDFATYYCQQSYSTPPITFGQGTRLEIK

For orientation: EC50 means the concentration needed to bring the measured effect to its halfway point. For “REGN5458 (bsAb25441D), anti-BCMA x anti-CD3 bispecific antibody”, the EC50 was found to be 15.1 nM.
